Measurements as given in US20200113997A1.
Residue numbers refer to the chain shown, from its start.

B1: DH270.IA3 (protein)
chain 1: QVQLVQSGAEVKKPGASVKVSCKASGYTFTDYYIHWVRQAPGQGLEWMAWINPTTGRTNYARKFQGRVTMTRDTSISTAYMELRRLRSDDTAVYYCARGGWIGLYVDYSGYPNFDSWGQGTLVTVSS
chain 2: QSALTQPASVSGSPGQSITISCTGTSYDVGSYNLVSWYQQHPGKAPKLMIYEVSKWPSGVSNRFSGSKSGNTASLTISGLQAEDEADYYCCSYAGSSTVIFGGGTKLTVL
B2: DH270.IA1 (protein)
chain 1: B1 chain 1 with A49G, T54N, R62Q, T69I, R84S, V106Y, Y108S, S116Y
chain 2: B1 chain 2 with W56R
B3: DH270.IA2 (protein)
chain 1: B1 chain 1 with V11M, A49G, T54N, R62Q, R84S, R87T, R98T, V106Y, Y108S, S116Y
chain 2: B1 chain 2 with L48Y, S54N, W56R
B4: DH270.6 (antibody, V domains shown)
VH: QVQLVQSGAQMKNPGASVKVSCAPSGYTFTDFYIHWLRQAPGQGLQWMGWMNPQTGRTNTARNFQGRVIMTRDTSIGTAYMELRSLTSDDTAIYYCTTGGWISLYYDSSYYPNFDHWGQGTLLTVSS
VL: TSLLTQPASVSGSPGQSITISCTGTKYDVGSHDLVSWYQQYPGKVPKYMIYEVNKRPSGVSNRFSGSKSGNTASLTISGLRAEDEADYYCCSFGGSATVVCGGGTKVTVL

Columns and labels:
Man9-V3 glycopeptide = assay: BLI
[1] = target: Man9-V3 glycopeptide (HIV-1 (clade B JRFL mini-V3)); assay: BLI, biotinylated peptide on streptavidin sensor, bivalent avidity model

Row | Binder | Kd (Man9-V3 glycopeptide) [µM] | Kd [1] [µM]
1 | B1 | > 10 | –
2 | B2 | 3.29 | –
3 | B3 | > 10 | –
4 | B4 | – | 0.188
